According to paper PMC10403363, “Mechanism of ribosome-associated mRNA degradation during tubulin autoregulation” (Molecular Cell, 2023):

What was measured:
[1] = biological target: T1, human FLAG-SCAPER (recombinant, purified) (human, UniProt Q9BY12 1-1400); experiment: cryo-EM structure; β-tubulin RNCs from rabbit reticulocyte lysate with recombinant Strep-TTC5 and FLAG-SCAPER, affinity purified via TTC5; SCAPER with TTC5; settings: both partners purified
T1 construct: SCAPER, human cDNA from Genscript recloned with an N-terminal FLAG tag; construct names (aa351-1400) imply 1400 residues; In the cryo-EM map only the part from residue 859 on (CTD) was resolved; also called recombinant SCAPER; source: Expi293 cells, transfected, purified (anti-FLAG resin, 3xFLAG peptide elution); not shown: FLAG, N-terminal, kept
T1 sequence: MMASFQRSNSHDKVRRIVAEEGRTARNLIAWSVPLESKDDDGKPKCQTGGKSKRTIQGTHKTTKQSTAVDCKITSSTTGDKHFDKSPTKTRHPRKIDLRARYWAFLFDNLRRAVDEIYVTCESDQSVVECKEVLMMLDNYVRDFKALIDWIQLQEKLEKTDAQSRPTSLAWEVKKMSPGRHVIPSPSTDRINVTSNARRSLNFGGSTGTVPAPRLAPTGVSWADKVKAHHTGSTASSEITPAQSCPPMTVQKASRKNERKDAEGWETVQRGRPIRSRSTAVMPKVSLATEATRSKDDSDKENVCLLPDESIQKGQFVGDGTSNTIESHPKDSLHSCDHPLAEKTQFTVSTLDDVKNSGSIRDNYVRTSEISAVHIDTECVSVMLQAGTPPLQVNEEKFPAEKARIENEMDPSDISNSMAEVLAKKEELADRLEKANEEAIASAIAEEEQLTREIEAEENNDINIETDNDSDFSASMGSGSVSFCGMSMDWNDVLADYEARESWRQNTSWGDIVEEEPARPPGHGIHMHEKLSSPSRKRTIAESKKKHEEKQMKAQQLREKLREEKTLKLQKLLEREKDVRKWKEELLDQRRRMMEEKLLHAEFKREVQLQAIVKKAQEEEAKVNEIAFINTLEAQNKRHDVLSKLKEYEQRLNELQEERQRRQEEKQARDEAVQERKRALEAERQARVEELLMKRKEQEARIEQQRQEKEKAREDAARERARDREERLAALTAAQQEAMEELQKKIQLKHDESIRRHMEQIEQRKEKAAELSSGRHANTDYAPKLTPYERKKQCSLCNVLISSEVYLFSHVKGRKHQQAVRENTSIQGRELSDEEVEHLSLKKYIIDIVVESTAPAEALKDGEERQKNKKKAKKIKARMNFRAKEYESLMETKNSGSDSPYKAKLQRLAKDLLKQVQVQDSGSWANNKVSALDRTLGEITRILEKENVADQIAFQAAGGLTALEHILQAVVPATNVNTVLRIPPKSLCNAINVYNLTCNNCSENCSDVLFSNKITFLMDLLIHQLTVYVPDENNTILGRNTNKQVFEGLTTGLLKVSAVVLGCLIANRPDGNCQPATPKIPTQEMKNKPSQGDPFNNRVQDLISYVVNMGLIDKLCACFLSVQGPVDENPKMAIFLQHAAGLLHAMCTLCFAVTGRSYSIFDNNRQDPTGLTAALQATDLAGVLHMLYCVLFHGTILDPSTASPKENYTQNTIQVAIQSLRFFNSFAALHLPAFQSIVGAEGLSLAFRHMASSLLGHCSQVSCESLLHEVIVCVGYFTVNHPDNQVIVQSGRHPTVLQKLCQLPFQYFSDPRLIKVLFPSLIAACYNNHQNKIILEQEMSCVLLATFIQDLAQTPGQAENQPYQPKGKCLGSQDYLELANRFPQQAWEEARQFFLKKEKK

[2] = biological target: T2, human SCAPER-FLAG (recombinant, purified) (human, UniProt Q9BY12 1-1400); experiment: pull-down; 100 nM SCAPER-FLAG and 150 nM Strep-TTC5 in IP buffer (50 mM HEPES pH 7.4, 100 mM KAc, 5 mM MgAc2, 1 mM DTT, 0.01% digitonin), 4°C; Streptactin magnetic beads; Coomassie; settings: both partners purified
T2 construct: SCAPER, human cDNA from Genscript; construct names (aa351-1400) imply 1400 residues; also called S-phase cyclin A associated protein residing in the ER; source: Expi293 cells, transfected, purified (anti-FLAG resin, 3xFLAG peptide elution); not shown: FLAG, C-terminal, kept
T2 sequence: T1 sequence

B1: human 6xHis-TEV-Twin-Strep-TTC5 (natural protein)
chain: MMADEEEEVKPILQKLQELVDQLYSFRDCYFETHSVEDAGRKQQDVQKEMEKTLQQMEEVVGSVQGKAQVLMLTGKALNVTPDYSPKAEELLSKAVKLEPELVEAWNQLGEVYWKKGDVAAAHTCFSGALTHCRNKVSLQNLSMVLRQLRTDTEDEHSHHVMDSVRQAKLAVQMDVHDGRSWYILGNSYLSLYFSTGQNPKISQQALSAYAQAEKVDRKASSNPDLHLNRATLHKYEESYGEALEGFSRAAALDPAWPEPRQREQQLLEFLDRLTSLLESKGKVKTKKLQSMLGSLRPAHLGPCSDGHYQSASGQKVTLELKPLSTLQPGVNSGAVILGKVVFSLTTEEKVPFTFGLVDSDGPCYAVMVYNIVQSWGVLIGDSVAIPEPNLRLHRIQHKGKDYSFSSVRVETPLLLVVNGKPQGSSSQAVATVASRPQCE
notes: tetratricopeptide repeat protein 5 (TTC5), human; TEV site between the 6xHis and the Twin-Strep tag; also called tetratricopeptide repeat protein 5; source: E. coli BL21(DE3), purified (Ni-NTA, Streptactin Sepharose); not shown: Twin-Strep, N-terminal, kept
Does B1 bind [1]?
Result: binds

Does B1 bind [2]?
Result: binds
